Measured values reported in paper PMC8752837, “Structural basis of BAK activation in mitochondrial apoptosis initiation” (Nature Communications, 2022).

T1: MEAS-BAK-His6 (C-terminus truncated recombinant human BAK containing C-terminal 6x histidine tag) (human) (UniProt Q16611)
T1 sequence: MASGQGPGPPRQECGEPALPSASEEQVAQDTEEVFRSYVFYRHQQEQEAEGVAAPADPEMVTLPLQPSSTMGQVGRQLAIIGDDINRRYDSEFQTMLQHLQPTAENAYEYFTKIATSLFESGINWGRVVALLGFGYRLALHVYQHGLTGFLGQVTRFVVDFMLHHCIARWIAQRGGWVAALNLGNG

T2: Human BAK-∆TM-His6 (human)
T2 sequence (Q16611 whole entry, looked up): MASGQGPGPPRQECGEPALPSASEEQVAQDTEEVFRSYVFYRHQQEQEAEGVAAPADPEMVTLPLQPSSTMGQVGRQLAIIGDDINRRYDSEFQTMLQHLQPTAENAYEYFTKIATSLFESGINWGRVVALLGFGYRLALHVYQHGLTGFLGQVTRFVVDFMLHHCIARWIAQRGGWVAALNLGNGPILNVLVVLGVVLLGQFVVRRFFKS


Assays:
[1] = molecular target: T1, MEAS-BAK-His6 (C-terminus truncated recombinant human BAK containing C-terminal 6x histidine tag) (human)
[2] = molecular target: T2, Human BAK-∆TM-His6 (human); test: SPR; MEAS-BAK-His6 captured (~500 RU) on Ni2+-charged NTA HisCap chip, peptides injected; 20 °C; 20 mM HEPES pH 8.0, 200 mM NaCl, 1 mM TCEP, 0.01% Tween20; 1:1 interaction model

Supplementary Table 1: liposome permeabilization EC50 (peptide dose against AUC, 50 nM BAK; data of Supplementary Figure 4b; also printed in Supplementary Figure 3d) [1] [µM] | Kd [2] [µM] | Binder
0.0358 |  | WT BAK BH3 peptide (N-terminal acetylation; C-terminal amidation) peptide: SASEEQVAQDTEEVFRSYVFYRHQQEQEAEGVAAPADPEMVTLPLQPSSTMGQVGRQLAIIGDDINRRYDSEFQTMLQHLQPTAENAYEYFTKIATSLFESGINWGRVVALLGFGYRLALHVYQHGLTGFLGQVTRFVVDFMLHHCIARWIAQRGGWVAALNL
 | 67 | BAK BH3 peptide (N-terminal acetylation; C-terminal amidation) peptide: SASEEQVAQDTEEVFRSYVFYRHQQEQEAEGVAAPADPEMVTLPLQPSSTMGQVGRQLAIIGDDINRRYDSEFQTMLQHLQPTAENAYEYFTKIATSLFESGINWGRVVALLGFGYRLALHVYQHGLTGFLGQVTRFVVDFMLHHCIARWIAQRGGWVAALNL
